The text below walks through data of patent publication US20190382483A1 (published 2019).

This test addresses T1, Recombinant hSIRPg-His (Sino Biologicals, reference 11828-H08H) (human, UniProt Q9P1W8 29-360).
T1 chain: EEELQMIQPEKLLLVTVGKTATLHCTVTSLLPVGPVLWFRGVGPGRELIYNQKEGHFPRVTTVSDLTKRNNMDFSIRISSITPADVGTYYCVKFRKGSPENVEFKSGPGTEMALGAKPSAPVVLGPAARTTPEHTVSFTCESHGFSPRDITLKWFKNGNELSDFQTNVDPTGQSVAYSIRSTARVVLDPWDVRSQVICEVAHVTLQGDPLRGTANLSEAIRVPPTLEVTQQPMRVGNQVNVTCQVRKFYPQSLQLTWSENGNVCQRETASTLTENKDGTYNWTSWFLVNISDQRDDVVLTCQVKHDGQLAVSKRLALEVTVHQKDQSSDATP
Kind of test: Blitz (BLI).

B1: SIRP29 (antibody, V domains shown)
VH: EVQLQQSGAELVKPGASVKLSCTASGFNIKDYYIHWVQQRTEQGLEWIGRIDPEDGETKYAPKFQDKATITADTSSNTAYLHLSSLTSEDTAVYYCARWGAYWGQGTLVTVSS
VL: QIVLTQSPAIMSASPGEKVTLTCSASSSVSSSYLYWYQQKPGSSPKLWIYSTSNLASGVPARFSGSGSGTSYSLTISSMEAEDAASYFCHQWSSYPRTFGAGTKLELK
On to B1, for which the Kd (in general, the constant that tells how readily two partners part at equilibrium) was 5.3 nM.

B2: Kwar23 (antibody, V domains shown)
VH: EVQLQQSGAELVKPGASVKLSCTASGFNIKDYYIHWVQQRTEQGLEWIGRIDPEDGETKYAPKFQDKATITADTSSNTAYLHLSSLTSEDTAVYYCARWGAYWGQGTLVTVSS
VL: QIVLTQSPAIMSASPGEKVTLTCSASSSVSSSYLYWYQQKPGSSPKLWIYSTSNLASGVPARFSGSGSGTSYSLTISSMEAEDAASYFCHQWSSYPRTFGAGTKLELK
Consider B2, for which the Kd was determined as 2.14 nM.
